Results as given in article PMC6814019 (Molecular cell, 2019).
“And” between values parts separate entries of the source, which are not always exact repeats. Equal entries are not always repeated.

Biological target: the molecule itself
Experiment: native MS

B1: C. elegans MORC-1 (8x-His-MBP-CeMORC) (natural protein, UniProt Q23243 1-845, looked up)
chain: MPNDTNGDDYKKLEKASVNLNFLKSNSHTHIGPLSAIAELVDNAYDADARDLHIDFLDINNEQFLELRDDGLGMAREEALHAITFGHSAKCSYKIGRYGNGLKSGAFHLGRELLLVTKKDGIITALLISHRFHEDQGLTNSVFVPCPSFDLDGIPICQTESEKDRFNLEMKIIGKYAPLGSRTLAELADKITGSTGTIIIIGNLRRSVTGELAINTTKDPTDIIVDSGEENKPWRESLRKYLEFIYLKPRMRIHVRGEQVLPKRISENWIAKKQQLISGDQFTAAYNKILDEKNETVKKCEEEKALVMSEIGGTNYTSVRREDRANQKSLRLRVDTSQKNLDSAIADRDAFKKEGKSEKSFHLNMGIETKDRSNNGIHFYINNRLILWGNKEAKFFSKFANSIGISMFLSLDYSLFSAAQNKQGFDHVKDFQVLVRKCNDALRDYSMYLEKSWIPTHLKNTWNVRIYEGDDVWAVLWGVYGYNNTTSTTCVQTHDSARDQVMWTTCGIWKLCQMCRTWIKASRPNEIVGSNDDFFCCENVNHHGCRTIVAEDNDFSKLPEKYDHILPQKRLTNSAPSSSDSQNSIRSASSCSSSSRLLNVAKIESHERIHSSTGGHRLGESFSTTSVKMEPIPNNAHDSHIAEVQRRHSTGRAISPAVSEISRRAGTAPSSQLDMIMGEESDESQEALTIRAPRQRAKRPIERVSRRNRRDQSDDDSDSENEERYATAPKKSKVKGKAVVRAPKMTREKWLEEMLNQFLTAHGEQPLPKNGQRDFDPTNIVEQTSRRNFKNNQRIVDAQQAIMRQIGSVLDHLKRNPTHNFKIPASGTVEEKLKNIEHQIKGKKK
stoichiometry N: 2 and 3 and 4
